The numbers were not newly measured in publication PMC3074115, which cites them from elsewhere.

The Kd is the concentration at which binding is half-saturated.

In series [1] the target is Ferrochelatase (Homo sapiens) (UniProt P22830). Briefly: ITC. Background: In ITC the heat of successive injections is recorded.
A further series concerns the target IscU (Escherichia coli) (UniProt P0ACD4). Description: ITC and SPR.

Sequence of IscU (Escherichia coli) (P0ACD4 whole entry): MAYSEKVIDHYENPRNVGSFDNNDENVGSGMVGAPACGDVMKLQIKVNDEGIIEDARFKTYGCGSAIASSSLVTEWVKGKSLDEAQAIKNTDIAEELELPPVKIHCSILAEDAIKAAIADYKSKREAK
Sequence of IscS (P0A6B7 whole entry): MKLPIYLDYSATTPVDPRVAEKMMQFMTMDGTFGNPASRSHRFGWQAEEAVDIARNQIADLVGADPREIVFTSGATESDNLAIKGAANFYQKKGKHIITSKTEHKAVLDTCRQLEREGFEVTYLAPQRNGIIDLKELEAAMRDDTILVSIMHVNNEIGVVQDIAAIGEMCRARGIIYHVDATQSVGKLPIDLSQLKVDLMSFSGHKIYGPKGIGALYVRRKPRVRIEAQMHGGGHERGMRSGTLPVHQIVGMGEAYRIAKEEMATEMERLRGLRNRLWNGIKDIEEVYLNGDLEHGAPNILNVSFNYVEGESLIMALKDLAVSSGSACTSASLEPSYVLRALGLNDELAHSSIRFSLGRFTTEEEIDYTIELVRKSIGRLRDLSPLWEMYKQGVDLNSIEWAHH
Sequence of Ferrochelatase (Homo sapiens) (P22830 55-423): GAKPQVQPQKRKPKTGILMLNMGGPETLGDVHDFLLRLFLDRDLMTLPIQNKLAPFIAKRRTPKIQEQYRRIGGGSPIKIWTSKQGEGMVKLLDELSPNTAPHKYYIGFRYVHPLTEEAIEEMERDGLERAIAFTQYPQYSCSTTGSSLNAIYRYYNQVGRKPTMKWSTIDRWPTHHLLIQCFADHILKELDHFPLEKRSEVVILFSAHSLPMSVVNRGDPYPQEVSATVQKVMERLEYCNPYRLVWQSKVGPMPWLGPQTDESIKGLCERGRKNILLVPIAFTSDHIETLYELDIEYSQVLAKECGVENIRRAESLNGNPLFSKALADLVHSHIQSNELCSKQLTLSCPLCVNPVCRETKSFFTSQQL

Frataxin (from UniProt Q16595): the Kd in series [1] was 17 nM.
As to IscS (from UniProt P0A6B7), in the series with IscU (Escherichia coli), the Kd was 2000 nM.
